Data reported in PMC6177440, “Overlapping motifs on the herpes viral proteins ICP27 and ORF57 mediate interactions with the mRNA export adaptors ALYREF and UIF” (Scientific Reports, 2018).

T1: UIF N-terminal region (residues 1-190), recombinant (human, UniProt Q96QD9 1-190)
T1 construct: UIF, homo sapiens, Uniprot Q96QD9, residues 1-190, in pET-15b; source: T7 express E. coli, purified (TALON resin, size exclusion chromatography)
T1 sequence (looked up): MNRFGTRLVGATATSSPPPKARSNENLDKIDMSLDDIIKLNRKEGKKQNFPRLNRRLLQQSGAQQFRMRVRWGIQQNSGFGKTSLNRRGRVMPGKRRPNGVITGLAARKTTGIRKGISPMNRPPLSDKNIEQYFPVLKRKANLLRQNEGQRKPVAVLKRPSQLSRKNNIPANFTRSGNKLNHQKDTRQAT

T2: KSHV ORF57 residues 153-455 (KSHV, UniProt Q2HR75 153-455)
T2 construct: ORF57 of Kaposi sarcoma herpes virus (KSHV), residues 153-455, in pET-21a; The strep-II-tag and HRV-3C site lay between thioredoxin and ORF57; also called ksORF57Δ153; ORF57Δ153; source: T7 express E. coli, purified (strep-tag resin, HRV-3C cleavage, size exclusion chromatography); not shown: thioredoxin, N-terminal, cleaved; strep-II, N-terminal, cleaved
T2 sequence: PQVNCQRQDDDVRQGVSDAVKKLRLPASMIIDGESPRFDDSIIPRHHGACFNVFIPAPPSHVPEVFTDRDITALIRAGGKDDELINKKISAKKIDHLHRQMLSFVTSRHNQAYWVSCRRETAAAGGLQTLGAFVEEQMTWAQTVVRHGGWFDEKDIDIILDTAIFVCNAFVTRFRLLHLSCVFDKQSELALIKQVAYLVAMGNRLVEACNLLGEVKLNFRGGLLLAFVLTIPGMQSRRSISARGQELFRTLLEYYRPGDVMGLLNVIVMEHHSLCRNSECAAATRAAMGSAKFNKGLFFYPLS

B1: KSHV ORF57 residues 68-178 (domain or fragment)
chain: GRIPKKSQGRSQLRSEIQFCSPLSRPRSPSPVNRYGKKIKFGTAGQNTRPPPEKRPRRRPRDRLQYGRTTRGGQCRAAPKRATRRPQVNCQRQDDDVRQGVSDAVKKLRLP
notes: ORF57 of Kaposi sarcoma herpes virus (KSHV), residues 68-178, in pET-15b; Used 15N labelled or unlabelled; also called ksORF57^68–178
B2: REF2-I (murine variant of ALYREF) residues 1-155 (domain or fragment)
chain: not shown
notes: Used 15N labelled or unlabelled; source: purified
B3: HSV-1 ICP27 residues 103-155 (domain or fragment)
chain: SVWSRLGARRPSCSPEQHGGKVARLQPPPTKAQPARGGRRGRRRGRGRGGPGA
notes: ICP27 of HSV-1, residues 103-155; Used 15N labelled; also called ICP27^103–155; source: purified

Experiments:
Conditions in all cases: both partners purified
[1] = target: B2; experiment: NMR titration; 15N HSQC of the 15N labelled protein (target) without and with an equimolar amount of the unlabelled partner (binder); ca. 50 µM; 20 mM sodium phosphate, 50 mM NaCl, 50 mM L-Arg, 50 mM L-Glu, 1 mM EDTA, 2 mM TCEP, pH 6.2; 298 K
[2] = target: T1, UIF N-terminal region (residues 1-190), …; experiment: as above
[3] = target: T2, KSHV ORF57 residues 153-455; experiment: NMR titration; 15N HSQC of the 15N labelled REF2-I construct (target) without and with unlabelled ICP27Δ241 or ksORF57Δ153 (binder); ca. 50 µM; NMR buffer with EDTA decreased to 0.1 mM, pH 6.2; 298 K

B1
binding result [1]: binds | binding result [2]: binds

B2
binding result [3]: binds

B3
binding result [1]: binds | binding result [2]: binds
